Data published in PMC8967979 (Frontiers in Immunology, 2022).

Target: WH01 RBD (residues 333-530) (SARS-CoV-2 Wuhan-Hu-01 (WH01), UniProt P0DTC2)
Experiment: crystal structure
Details: both partners purified

B1: Nb22 (VHH)
VHH: QVQLVESGGNLVQPGGSLRLSCAASGGTLASFAVGWFRQAPGKEREGVSCIDVINRANYADSVKGRFTISRDSAKNTVYLQMNSLEPEDTAVYSCAAHFVPPGSRLRGCLVNELYNYWGQGTQVTVSS
B1: binds.
